Reference: patent publication US9206239B2, “Treatment of cancers with immunostimulatory HIV Tat derivative polypeptides” (PIN Pharma, Inc., priority 2009, dated 2015)

What was measured:
[1] = tested on: TS/A breast cancer cells; test: TS/A breast carcinoma model; format: in vivo, mice; conditions: for primary anti-cancer difference vs control: p<0.01
Description: (§1) 4T1 cells, a 6-thioguanine-resistant cell line derived from a BALB/c spontaneous mammary carcinoma was obtained from ATCC; TS/A, a murine adenocarcinoma cell line was provided by Dr. Sandra Demaria (Demaria S. et al. Clin Cancer Res. 11:728-34, 2005); and SM1, the BALB/C-derived mammary carcinoma was kindly was provided by Dr. James Allison, University of California, Berkeley. All tumor cell lines were cultured in DMEM, supplemented with 2 mM L-glutamine, 10 mM HEPES, 150 units/ml penicillin/streptomycin, 10% heat-inactivated FCS (Invitrogen), 50 μM 2-mercaptoethanol (Sigma), and 50 mg/L gentamicin (Lanza).
(§2) BALB/c were injected (SC) with 1×10^4 4T1, 1×10^5 TS/A or 2×10^5 SM1 cells, respectively, in the left mammary pad on day 0. Immunotherapy was performed by directly injecting a Tat derivative into the right flank at 0, 7, 12, and 17 days after establishment of tumors. The control group received PBS injection. […] Tumor burden (tumor volume) was measured and recorded three times weekly. Animals were sacrificed when tumors reached a volume of 15 mm in diameter and the tumors harvested and weighed.

[2] = tested on: IFN-γ production by spleen cells; test: ELISA analysis of IFN-γ production by immune spleen cells of 4T1 tumor-bearing mice; format: in vivo, BALB/c mice
Description: FIG. 7 depicts INF-γ production from spleen cells of mice bearing 4T1 breast tumors. BALB/c mice were injected SC with 1×10^4 4T1 cells. Control animals received weekly injections of PBS, while the Nani-P2 treatment comprised once weekly SC injections (40 ng) initiated at day 0 and continued for 4 weeks. On day 33, when control mice were at endstage, the mice were sacrificed, the spleens harvested and frozen as single cell suspensions until time of assay. Spleen cells (2×10^5) and 1×10^4 mitomycin C-treated (50 μg/ml for 30 min) 4T1 stimulator cells (S) were plated into 96-well plates. After 72 hr of stimulation, the supernatants were collected and IFN-γ concentration was determined using a commercial IFN-γ ELISA kit. […] 1: no restimulation; 2: IL-4 (50 ng/ml)/GM-CSF ([…]); 3: stimulator cells/IL-4/GM-CSF; 4: stimulator cells only.
Splenocyte secretion of IFN-γ was assessed by an OPTEIA® ELISA kit (BD Biosciences). Briefly, spleen cells (1×10^5/well) from 4T1 tumor-bearing mice were cultured with or without 5×10^3/well mitomycin C (50 μg/ml)-treated 4T1 cells (used to provide tumor antigens) in DMEM in at a 20:1 E:T (effector:tumor) ratio with […] (50 ng/mL) and GM-CSF (100 ng/ml) in 96-well plates. Supernatants were collected after 72 hr and kept frozen at −80° C. until analysis without loss of activity. IFN-γ was measured in cell-free supernatants of duplicate wells by ELISA according to the manufacturer's instructions. Tumor-specific IFN-γ production was calculated by subtracting the background values measured in supernatants of spleen cells cultured with medium alone and optical density (OD) values were converted to pg/ml amounts of IFN-γ using a recombinant IFN-γ standard curve. Stimulation index (SI) was calculated as the ratio of IFN-γ in stimulated versus control cultures.
To determine whether cytotoxic T-lymphocytes play a role in tumor rejection induced by Nani-P2 therapy, an IFN-γ ELISA assay (FIG. 7) was performed to compare spleen cells of 4T1 tumor-bearing mice treated either without (Control) or with Nani-P2 (FIG. 7). […]

[3] = tested on: SM1 breast cancer cells; test: SM1 breast carcinoma model; format: in vivo, mice
Description: as §1, §2

[4] = tested on: 4T1 breast tumors; test: Kaplan-Meier survival of mice bearing 4T1 breast tumors; format: in vivo, BALB/c mice; conditions: for survival: day 47
Description: as §2
Data were statistically analyzed using Student's t-test (Graph Pad Prism version 5; GraphPad). Data from animal survival experiments were statistically analyzed using log-rank test (Graph Pad Prism version 5).
To determine whether Nani-P2 treatment could extend survival in addition to shrinking primary tumors in mice, treatment protocols using various dosing schedules and routes (SC, IV or IT) of administration of 40 ng Nani-P2 were performed. Cohorts of ten mice per group were followed for length of survival, as assessed by use of the Kaplan-Meier product limit method. As per Columbia University Medical Center Animal Facility regulations, each mouse was euthanized at a mean tumor diameter of approximately 15 mm, or earlier if the mouse became moribund, making one of these two outcomes the defining criteria for fatality.

[5] = tested on: 4T1 lung metastases; test: Detection of 4T1 lung metastases; format: in vivo, BALB/c mice; conditions: treated IV, established 4T1 tumors; p<0.01 vs PBS
Source text: Lungs were examined for 4T1 metastases as previously described (Pulaski B. et al. Cancer Res. 60:2710-2715, 2000). Primary 4T1 tumors that have been established for 2-3 weeks in BALB/c mice metastasize to the lungs in a very large majority of animals. Briefly, mice were sacrificed according to IACUC guidelines established at the start of the trials, the lungs removed, and tumor nodules on the surface of the lungs were enumerated with the naked eye by two independent investigators blinded to the treatment protocols.
To further investigate the efficacy of Nani-P2 against established and metastatic breast cancer, 4T1 cells were injected SC in the abdominal mammary gland of mice and treatment was delayed until such time that the tumors had metastasized to the lungs and averaged 3.5 mm in size (FIG. 8A, day 13), corresponding to a 2.4 cm or stage T2 human breast tumor. Mice were followed for tumor growth (FIG. 8A) and lung metastases (FIG. 8B). […] This corresponded to a less aggressive appearance of primary tumor, as well as lung metastases that were on average much smaller in size (FIG. 8B).

B1: Nani-P2: HIV Tat derivative polypeptide, SEQ ID NO: 3; derivatized Tat amino terminus from an African Green Monkey variant SIV (protein)
chain: MDPKGEEDQDVSHQDLIKQYRKPRTACNNCYCKKCCFHCYACFLRKGLGITYHAFRTRRKKIASADRIPVPQQSISIRGRDSQTTQESQKKVEEQAKANLRISRKNLGDETRGPVGAGN
modifications: Nani-P2 modified HIV Tat sequence
notes: derivatized Tat amino terminus from an African Green Monkey variant SIV
[1]; 0.4 ng SC
  suppression of growth: ~50%
[1]; 40 ng SC
  primary anti-cancer difference vs control: highly significant
[1]; at 30 days
  total remission rate: 40%
[1]; lowest dose (0.4 ng SC)
  primary anti-cancer difference vs control: highly significant
[2]; 40 ng SC weekly for 4 weeks, no restimulation
  baseline levels of INF-γ secreted by splenocytes vs PBS-treated control mice: 8 fold
[2]; all conditions of assay
  INF-γ production in cultures of spleen cells vs control: significantly (p<0.01**) higher
[2]; tumor stimulators + IL4 + GM-CSF added at initiation of culture
  stimulation index vs control: 53
[3]; 40 ng SC days 0, 7, 14, 21, p<0.01
  difference in primary tumor growth between control and treated animals: highly statistically significant
[3]; 28 days following implant, one week after termination of the regimen
  animals remaining in remission: 40%
[3]; for 16 days, 40 ng SC days 0, 7, 14, 21
  animals in which tumor growth was suppressed: 100%
[4]; IT, 40 ng weekly x3, tumors established fourteen days
  survival, intratumoral administration: slightly inferior to SC administration
[4]; IV, 40 ng weekly x3, tumors established fourteen days, p<0.005
  survival: 60%
[4]; SC, 40 ng weekly x3, tumors established fourteen days, p<0.05
  survival: 20%
[4]; day 48, 40 ng SC, 4 doses over 21 days from day 0, p<0.001
  treated mice still alive: 35%
[4]; established 4T1 tumors, treated intravenously
  duration of tumor growth inhibition and survival benefits past the last dosing: at least 36 days
[5]
  average number of grossly visible tumor nodules in the lungs: seven
